Legend:
[1] = target: SARS-CoV-2 英国流行株 (MW255832) live virus, spike glycoprotein (SARS-CoV-2); assay: cell-based or functional assay
[2] = target: SARS-CoV-2 东南亚株 (MW341443) live virus, spike glycoprotein (SARS-CoV-2); assay: cell-based or functional assay

B1: 抗体nCoV617 (anti-coronavirus spike glycoprotein human monoclonal antibody) (antibody, V domains shown)
VH: QVQLVESGGGVVQPGRSLRLSCAASGFTFSSYAMHWVRQAPGKGLEWVALISYDGSNKYYADSVKGRFTISRDNSKNTLYLQMNSLRAEDTAVYYCARGLGLRFLEWPISSYWGQGTLVTVSS
VL: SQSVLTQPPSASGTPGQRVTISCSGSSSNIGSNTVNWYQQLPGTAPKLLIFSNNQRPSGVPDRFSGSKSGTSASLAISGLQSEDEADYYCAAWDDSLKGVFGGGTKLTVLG
notes: also called 抗S蛋白抗体; 抗冠状病毒刺突糖蛋白单克隆抗体
IC50 (neutralisation of live virus on Vero E6 cells, cytopathic effect) [1]: 1.1 µg/mL | IC50 (neutralisation of live virus on Vero E6 cells, cytopathic effect) [2]: 0.87 µg/mL

Reference: patent publication CN115141270A (SHENZHEN KANGMAI BIOTECHNOLOGY CO LTD, dated 2022)
